% binding in relation to control without lysate data for one substance are collected here from patent US6086895.

In the assay the target is fibronectin (125I labelled). Nature of the assay: inhibition assay in tubes; control lysate undiluted; 125I fibronectin bound to S. aureus Cowan I cells (competitor).

In turn, “lysate of E. coli TG1 with pUC18-vector without insert (negative control) (pool or library)” showed a % binding in relation to control without lysate of 83.3%.
